Experimental data reported in patent publication US20200247894A1 (Regeneron, published 2020).
Blank lines part the entries; values can stand above or below the binder they belong to.

Assays:
[1] = biological target: T1, human IL-2Rγ expressed on cells (human, UniProt P31785 23-369); test: flow cytometry on NK-92 cells, antibody at 10 µg/ml, MFI of sample over MFI of unstained; lower end, tied to H4H13538P by Table 9-2
T1 construct: whole, on cells; on cells it stands together with the cytokine-specific receptor subunits; also called IL-2Rgamma; CD132
T1 sequence (looked up): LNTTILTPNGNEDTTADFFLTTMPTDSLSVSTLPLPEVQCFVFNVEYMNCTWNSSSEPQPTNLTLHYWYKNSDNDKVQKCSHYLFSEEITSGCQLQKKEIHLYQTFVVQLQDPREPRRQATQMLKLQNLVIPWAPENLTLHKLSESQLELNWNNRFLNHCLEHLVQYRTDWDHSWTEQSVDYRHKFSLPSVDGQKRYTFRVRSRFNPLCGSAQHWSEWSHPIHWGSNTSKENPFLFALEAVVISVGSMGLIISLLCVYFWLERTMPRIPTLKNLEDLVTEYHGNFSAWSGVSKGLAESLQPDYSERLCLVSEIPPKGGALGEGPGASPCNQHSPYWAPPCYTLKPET
Method: (§1) For flow cytometry analyses, the cells were pre-incubated with mouse IgG at 100 μg/ml for 15 minutes at room temperature (RT) to block the binding of the antibodies to Fc receptors. […] Cells were washed, fixed using BD CytoFix™ (BD biosciences, #554655) and analyzed on an IQue® (Intellicyt®) Flow Cytometer or Accuri Flow cytometer (BD). […] The results were analyzed using ForeCyt® (IntelliCyt®) software to determine the geometric means of fluorescence (MFI) for viable cells. Binding ratios were calculated by normalizing the MFI of the test sample by the MFI of the unstained sample.

[2] = biological target: T1, human IL-2Rγ expressed on cells; test: flow cytometry on NK-92 cells, antibody at 10 µg/ml, MFI of sample over MFI of unstained; upper end, tied by Table 9-2 to the row printed H4H13841P
[3] = biological target: T1, human IL-2Rγ expressed on cells; test: flow cytometry on NK-92 cells, antibody at 10 µg/ml, MFI of sample over MFI of unstained; upper end, tied to H4H12889P by Table 9-1
Method: as §1

[4] = biological target: T1, human IL-2Rγ expressed on cells; test: flow cytometry on Jurkat cells, antibody at 10 µg/ml, MFI of sample over MFI of unstained; upper end, tied to H4H12889P by Table 9-1
Method: as §1

binding ratio [1]: 1
B1: H4H13538P (antibody, human IgG4 S228P, kappa, V domains shown)
VH: EVQLVESGGGLVQPGGSLGLSCAASGFTFSNYAMSWVRQAPGKGLEWVSAVSGGGGGTYYADSVKGRFTISRDNSKNTVLLQMNSLRAEDTAVYYCARGRTGGLDYWGPGTLVTVSS
VL: DVVMTQSPLSLPVIFGQPASISCRSSQSLVDSDGNTYLNWLQQRPGQSPRRLIYEVSNRDSGVPDRFSGSGSGTDFTLTISRVEAEDVGIYYCMQGTRWPPTFGGGTKVEIKR
notes: fully human anti-IL2Rγ antibody, human IgG4

binding ratio [2]: 37
B2: H4H13541P (antibody, human IgG4 S228P, kappa, V domains shown)
VH: EVQLVESGGGVVRPGGSLRLSCAASGFIFDDYDMSWVRQPPGRGLEWVSGIDWFGGTRGYADSMKGRFTISRDNAKNSLYLQMNSLRVEDTAFYYCARGGAIVGAVTPFDYWGQGTLVTVSS
VL: DIQMTQSPSSLSASVGNRVTLSCRASQSINTYLSWYQQRPGKAPKLLIYAASSLQSGVPSRFSGSGAGTDFTLTISSLQPEDFATYYCQQSYSAPLTFGGGTKVEIKR
notes: as for B1

binding ratio [3]: 94
binding ratio [4]: 19
B3: H4H12889P (antibody, human IgG4 S228P, kappa, V domains shown)
VH: EVQLVESGGGLVQPGGSLRLSCAASGFIFSSYEMHWVRQAPGKGLEWISYISSSGTTIYYADSVKGRFTISRDNAKNSLYLHMNSLRAEDTAVYYCTRARITGTFDVFDIWGQGTMVTVSS
VL: DIQMTQSPSSLSASVGDRVTITCRASQSISSYLNWYQQKPGKAPKLLIFAASNLQSGVPSRFSGSRSGTDFTLTISSLQPEDFATYYCQQNYNIPYTFGQGTKLEIKR
notes: fully human anti-IL2Rγ antibody, human IgG4; also called REGN7257
